# Tested on: Escherichia coli TOP10
# Assay: shrunken log2 fold change of peptide-encoding DNA abundance (4.5 h post-induction vs induction); higher = less antimicrobial activity (less host growth inhibition)
# Conditions: time post-induction: 4.5 h; library: site-saturation at positions 5, 18, 19, 20
# 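Also: peptides expressed intracellularly from a pBAD plasmid library in pooled LB shake-flask culture, induced with 0.3% L-arabinose, DNA abundance read by NGS, three biological replicates, DESeq2 with apeglm shrinkage.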
row,Sequence,shrunken log2 fold change
1,RRIRCRPPRLPRPRPRPLLWPRP,0.671
2,RRIRQRPPRLPRPRPRPMPHPRP,-0.0205
3,RRIRFRPPRLPRPRPRPFKRPRP,-0.813
4,RRIRMRPPRLPRPRPRPEQTPRP,0.057
5,RRIRWRPPRLPRPRPRPHCLPRP,0.0644
6,RRIRQRPPRLPRPRPRPNEEPRP,2.87
7,RRIRVRPPRLPRPRPRPGSVPRP,-0.269
8,RRIRNRPPRLPRPRPRPRNDPRP,-0.304
9,RRIRKRPPRLPRPRPRPSRHPRP,0.0967
10,RRIRMRPPRLPRPRPRPDKEPRP,-0.01
11,RRIRWRPPRLPRPRPRPACKPRP,-0.0942
12,RRIRSRPPRLPRPRPRPLKYPRP,-0.653
13,RRIRERPPRLPRPRPRPDNIPRP,-0.745
14,RRIRQRPPRLPRPRPRPGNTPRP,0.0649
15,RRIRCRPPRLPRPRPRPCKDPRP,-0.142
16,RRIRNRPPRLPRPRPRPRGGPRP,0.474
17,RRIRRRPPRLPRPRPRPRRAPRP,0.655
18,RRIRTRPPRLPRPRPRPDSMPRP,0.0768
19,RRIRTRPPRLPRPRPRPEKEPRP,0.0172
20,RRIRQRPPRLPRPRPRPQEGPRP,0.0274
21,RRIRSRPPRLPRPRPRPWPWPRP,0.0913
22,RRIRIRPPRLPRPRPRPFQMPRP,-0.271
23,RRIRFRPPRLPRPRPRPYNCPRP,-0.768
24,RRIRERPPRLPRPRPRPLTKPRP,-0.0153
25,RRIRFRPPRLPRPRPRPQLGPRP,0.1

row,Sequence,shrunken log2 fold change
1,RRIRFRPPRLPRPRPRPQTHPRP,-0.151
2,RRIRYRPPRLPRPRPRPALRPRP,-0.0531
3,RRIRTRPPRLPRPRPRPWTRPRP,0.064
4,RRIRSRPPRLPRPRPRPTCEPRP,0.228
5,RRIRDRPPRLPRPRPRPAHTPRP,0.0343
6,RRIRERPPRLPRPRPRPLRVPRP,0.269
7,RRIRWRPPRLPRPRPRPTVAPRP,0.662
8,RRIRMRPPRLPRPRPRPHLKPRP,0.253
9,RRIRVRPPRLPRPRPRPFKHPRP,-0.0897
10,RRIRARPPRLPRPRPRPPNKPRP,0.23
11,RRIRYRPPRLPRPRPRPNHKPRP,-1.3
12,RRIRERPPRLPRPRPRPYQSPRP,-0.0109
13,RRIRARPPRLPRPRPRPEYRPRP,0.0382
14,RRIRSRPPRLPRPRPRPQQEPRP,-0.0806
15,RRIRHRPPRLPRPRPRPRINPRP,-0.0802
16,RRIRRRPPRLPRPRPRPCSQPRP,0.0499
17,RRIRMRPPRLPRPRPRPTGKPRP,0.562
18,RRIRNRPPRLPRPRPRPDSCPRP,-0.00192
19,RRIRFRPPRLPRPRPRPKDFPRP,-0.158
20,RRIRLRPPRLPRPRPRPFYKPRP,-0.349
21,RRIRFRPPRLPRPRPRPRSAPRP,0.379
22,RRIRNRPPRLPRPRPRPSHLPRP,-0.438
23,RRIRLRPPRLPRPRPRPPNRPRP,0.0237
24,RRIRERPPRLPRPRPRPEQIPRP,-0.207
25,RRIRFRPPRLPRPRPRPEKAPRP,0.0584

row,Sequence,shrunken log2 fold change
1,RRIRNRPPRLPRPRPRPHYHPRP,-0.142
2,RRIRRRPPRLPRPRPRPGRGPRP,0.805
3,RRIRERPPRLPRPRPRPEHFPRP,-0.00973
4,RRIRFRPPRLPRPRPRPWDFPRP,-0.0975
5,RRIRQRPPRLPRPRPRPTRSPRP,0.164
6,RRIRTRPPRLPRPRPRPTERPRP,0.36
7,RRIRYRPPRLPRPRPRPETGPRP,-0.0691
8,RRIRERPPRLPRPRPRPKSIPRP,-0.323
9,RRIRRRPPRLPRPRPRPSDCPRP,-0.0825
10,RRIRERPPRLPRPRPRPKWAPRP,0.0574
11,RRIRPRPPRLPRPRPRPKLYPRP,0.0311
12,RRIRSRPPRLPRPRPRPFHSPRP,-0.0807
13,RRIRTRPPRLPRPRPRPDWCPRP,-0.0271
14,RRIRYRPPRLPRPRPRPLCAPRP,-0.356
15,RRIRWRPPRLPRPRPRPQPDPRP,0.32
16,RRIRHRPPRLPRPRPRPKFLPRP,0.0327
17,RRIRCRPPRLPRPRPRPVHHPRP,-0.176
18,RRIRVRPPRLPRPRPRPRWRPRP,0.587
19,RRIRYRPPRLPRPRPRPNINPRP,-1.37
20,RRIRERPPRLPRPRPRPCTHPRP,-1.36
21,RRIRKRPPRLPRPRPRPATMPRP,0.49
22,RRIRVRPPRLPRPRPRPGRDPRP,0.175
23,RRIRPRPPRLPRPRPRPLAIPRP,0.00474
24,RRIRIRPPRLPRPRPRPEYIPRP,-0.667
25,RRIRVRPPRLPRPRPRPWWGPRP,0.0115

row,Sequence,shrunken log2 fold change
1,RRIRARPPRLPRPRPRPECVPRP,1.07
2,RRIRNRPPRLPRPRPRPNRGPRP,0.0523
3,RRIRHRPPRLPRPRPRPLTVPRP,-0.0423
4,RRIRMRPPRLPRPRPRPVMAPRP,0.266
5,RRIRNRPPRLPRPRPRPIIQPRP,-0.481
6,RRIRMRPPRLPRPRPRPMCRPRP,0.0713
7,RRIRPRPPRLPRPRPRPEFDPRP,0.33
8,RRIRRRPPRLPRPRPRPRHQPRP,0.277
9,RRIRARPPRLPRPRPRPDVIPRP,0.0534
10,RRIRNRPPRLPRPRPRPSRIPRP,-0.234
11,RRIRARPPRLPRPRPRPTLKPRP,0.605
12,RRIRQRPPRLPRPRPRPKPWPRP,0.502
13,RRIRARPPRLPRPRPRPIFIPRP,0.127
14,RRIRFRPPRLPRPRPRPCTRPRP,0.0381
15,RRIRSRPPRLPRPRPRPLGHPRP,-0.051
16,RRIRFRPPRLPRPRPRPEHCPRP,-0.0154
17,RRIRHRPPRLPRPRPRPELIPRP,-0.0454
18,RRIRDRPPRLPRPRPRPKPDPRP,0.306
19,RRIRDRPPRLPRPRPRPKDEPRP,0.0229
20,RRIRVRPPRLPRPRPRPCSRPRP,-0.0712
21,RRIRLRPPRLPRPRPRPRPLPRP,0.579
22,RRIRSRPPRLPRPRPRPKWIPRP,-0.553
23,RRIRARPPRLPRPRPRPQTNPRP,0.36
24,RRIRTRPPRLPRPRPRPWVHPRP,-0.0467
25,RRIRCRPPRLPRPRPRPLAWPRP,-0.0538

row,Sequence,shrunken log2 fold change
1,RRIRHRPPRLPRPRPRPCNYPRP,-0.084
2,RRIRWRPPRLPRPRPRPAAVPRP,0.806
3,RRIRFRPPRLPRPRPRPPLLPRP,-0.0704
4,RRIRARPPRLPRPRPRPFPWPRP,0.477
5,RRIRVRPPRLPRPRPRPKRWPRP,0.706
6,RRIRLRPPRLPRPRPRPLCNPRP,-0.453
7,RRIRIRPPRLPRPRPRPCDLPRP,-0.011
8,RRIRTRPPRLPRPRPRPMFKPRP,-0.122
9,RRIRARPPRLPRPRPRPYLIPRP,-0.659
10,RRIRNRPPRLPRPRPRPFSSPRP,-0.0316
11,RRIRWRPPRLPRPRPRPLNFPRP,-0.323
12,RRIRARPPRLPRPRPRPFSAPRP,-0.0294
13,RRIRSRPPRLPRPRPRPMIEPRP,-0.0828
14,RRIRCRPPRLPRPRPRPCHCPRP,0.00562
15,RRIRCRPPRLPRPRPRPQFGPRP,-0.233
16,RRIRFRPPRLPRPRPRPWLGPRP,0.0212
17,RRIRVRPPRLPRPRPRPWKIPRP,-0.0261
18,RRIRYRPPRLPRPRPRPTDFPRP,-0.325
19,RRIRDRPPRLPRPRPRPLQPPRP,0.467
20,RRIRFRPPRLPRPRPRPQHFPRP,0.205
21,RRIRHRPPRLPRPRPRPPMIPRP,-0.105
22,RRIRVRPPRLPRPRPRPRLPPRP,0.636
23,RRIRQRPPRLPRPRPRPRRVPRP,0.252
24,RRIRVRPPRLPRPRPRPRRFPRP,0.309
25,RRIRARPPRLPRPRPRPVQYPRP,0.0979

row,Sequence,shrunken log2 fold change
1,RRIRWRPPRLPRPRPRPEKNPRP,0.686
2,RRIRVRPPRLPRPRPRPRKCPRP,-0.0338
3,RRIRNRPPRLPRPRPRPNLMPRP,-0.733
4,RRIRLRPPRLPRPRPRPLMVPRP,-0.326
5,RRIRGRPPRLPRPRPRPKWFPRP,0.0384
6,RRIRYRPPRLPRPRPRPCLFPRP,-0.931
7,RRIRFRPPRLPRPRPRPSYNPRP,-1.04
8,RRIRKRPPRLPRPRPRPDWIPRP,-0.0252
9,RRIRIRPPRLPRPRPRPWPFPRP,-0.259
10,RRIRYRPPRLPRPRPRPYKYPRP,-0.238
11,RRIRTRPPRLPRPRPRPSIRPRP,-0.183
12,RRIRPRPPRLPRPRPRPWVCPRP,0.23
13,RRIRRRPPRLPRPRPRPILNPRP,-0.0188
14,RRIRRRPPRLPRPRPRPAAWPRP,0.0944
15,RRIRMRPPRLPRPRPRPYINPRP,-0.574
16,RRIRCRPPRLPRPRPRPKVQPRP,0.0235
17,RRIRTRPPRLPRPRPRPIHYPRP,-0.356
18,RRIRNRPPRLPRPRPRPADRPRP,-0.00994
19,RRIRIRPPRLPRPRPRPKRSPRP,-0.335
20,RRIRDRPPRLPRPRPRPGNEPRP,-0.159
21,RRIRGRPPRLPRPRPRPNKIPRP,0.214
22,RRIRERPPRLPRPRPRPGDEPRP,0.115
23,RRIRERPPRLPRPRPRPFQKPRP,-0.178
24,RRIRYRPPRLPRPRPRPYTHPRP,-0.508
25,RRIRRRPPRLPRPRPRPDFMPRP,0.335

# — the supplement of paper PMC9112550, “Optimization of the antimicrobial peptide Bac7 by deep mutational scanning” (BMC Biology, 2022)
